Measured values reported in US20200392228A1 (PANDION OPERATIONS, published 2020).

T1: CD25 (Homo sapiens (Human), UniProt P01589 22-240)
T1 construct: also called IL-2R alpha chain
T1 sequence: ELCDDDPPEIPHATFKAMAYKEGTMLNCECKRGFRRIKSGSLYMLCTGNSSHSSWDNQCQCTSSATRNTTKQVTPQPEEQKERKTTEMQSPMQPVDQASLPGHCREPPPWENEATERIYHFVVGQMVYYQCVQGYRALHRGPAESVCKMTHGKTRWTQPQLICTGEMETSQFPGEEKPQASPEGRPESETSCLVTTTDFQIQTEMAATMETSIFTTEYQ


Target: T1, CD25
Experiment: ELISA, plate-bound CD25
Experimental: An immunosorbent plate was coated with CD25 at a concentration of 0.5 μg/mL in PBS pH 7.4, 75 ul/well, and incubated overnight at 4° C. Wells were washed with PBS pH 7.4 containing 0.05% Tween-20 (wash buffer) three times, and then blocked with 200 ul/well 1% BSA in PBS pH 7.4 (block buffer) for two hours at room temperature. After three washes with wash buffer IL-2M molecules of Example 12 were diluted to eleven—two fold serial dilution in PBS containing 1% BSA and 0.05% Tween-20 (assay buffer) with 2 nM being the highest concentration. The diluted material was added to the CD25 coated plate at 75 ul/well for 1 hour at room temperature. After three washes with wash buffer, a goat biotinylated anti-IL-2 polyclonal antibody, diluted to 0.05 μg/mL in assay buffer, was added to the plate at 75 ul/well for 1 hr at room temperature. After three washes with wash buffer high sensitivity streptavidin HRP diluted in assay buffer at 1:5000 was added to the plate at 75 ul/well for 15 minutes at room temperature. After three washes with wash buffer and 1 wash with wash buffer (with no tween-20), the assay was developed with TMB, and stopped with 1N HCL. OD 450 nm was measured. The experiment included appropriate controls for non-specific binding of IL-2M molecules to the plate/block in the absence of CD25 and a negative control molecule that is unable to bind CD25.

EC50 | Binder
< 1 nM | IL-2M SEQ ID NO: 55 (Fc fusion, also called IL-2 L80I N88D V69A, C125S Q74P-G4Sx4-Fc) APTSSSTKKTQLQLEHLLLDLQMILNGINNYKNPKLTRMLTFKFYMPKKATELKHLQCLEEELKPLEEALNLAPSKNFHIRPRDLISDINVIVLELKGSETTFMCEYADETATIVEFLNRWITFSQSIISTLTGGGGSGGGGSGGGGSGGGGSDKTHTCPPCPAPEAAGAPSVFLFPPKPKDTLMISRTPEVTCVVVDVSHEDPEVKFNWYVDGVEVHNAKTKPREEQYNSTYRVVSVLTVLHQDWLNGKEYKCKVSNKALPAPIEKTISKAKGQPREPQVYTLPPSREEMTKNQVSLTCLVKGFYPSDIAVEWESNGQPENNYKTTPPVLDSDGSFFLYSKLTVDKSRWQQGNVFSCSVMHEALHNHYTQKSLSLSPG
< 1 nM | IL-2M SEQ ID NO: 56 (Fc fusion, also called IL-2 L118I N88D V69A, Q74P, C125S-G4Sx4-Fc) APTSSSTKKTQLQLEHLLLDLQMILNGINNYKNPKLTRMLTFKFYMPKKATELKHLQCLEEELKPLEEALNLAPSKNFHLRPRDLISDINVIVLELKGSETTFMCEYADETATIVEFINRWITFSQSIISTLTGGGGSGGGGSGGGGSGGGGSDKTHTCPPCPAPEAAGAPSVFLFPPKPKDTLMISRTPEVTCVVVDVSHEDPEVKFNWYVDGVEVHNAKTKPREEQYNSTYRVVSVLTVLHQDWLNGKEYKCKVSNKALPAPIEKTISKAKGQPREPQVYTLPPSREEMTKNQVSLTCLVKGFYPSDIAVEWESNGQPENNYKTTPPVLDSDGSFFLYSKLTVDKSRWQQGNVFSCSVMHEALHNHYTQKSLSLSPG
